Laboratory results published in the RNAGym collection of RNA variant scans (doi:10.1073/pnas.2313332121).

B1: TPR t1 (parent)
chain: GACCAAUCUGCCCUCAGAGCUCGAGAACAUCUUCGGAUGCAGAGGAGGCAGGCUUCGGUGGCGCGAUAGCGCCAACGUCCUCAACCUCCAAUGCAUCCCACCACAUGAUGAUGCCUGAAGAGCCUUGGUUUUUUG

Variants of: B1
Test: polymerase ribozyme fitness, log enrichment relative to wild type (log ratio); higher = more active; in vitro selection for triplet polymerase activity
In short: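 To select mutant libraries of each subunit of a heterodimeric triplet polymerase ribozyme, built by PCR and transcribed, each was annealed with a biotinylated primer, partner subunit and triplets, then incubated frozen at −7 °C. Extended constructs were gel-excised, captured on streptavidin beads and amplified by RT-PCR, in one round carried out in triplicate. Illumina sequencing of input and output libraries kept genotypes with ≥10 input reads and ≥1 read per output. Fitness is the base-2 logarithm of genotype enrichment relative to wild-type enrichment, from inverse-variance-weighted replicate averages.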

Variant	polymerase ribozyme fitness (log ratio)
GACCAAUCUGCCCUCAGAGCUCGAGAACAUCUUCGGAUGCAGAGGAGGCUGGCUUCGGUGGCGCGAUAGCGCCAACGUCCUCAACCUCCAAUGCAUCCCACCACAUGAUGAUGCCUGAAGAGCCUUGAUUUUUUG [A50U G128A]	-3.35
GACCAAUCUGCCCUCAGAGCUAGAGAACAUCUUCGGAUGCAGAGGAGGCAGGCUUCGGUGGCGCGCUAUCGCCAACGUCCUCAACCUCCAAUCCAUCCCACCACAUGAUGAUGCCUGAAGAGCCUUGGUUUUUUG [C22A A66C G69U G93C]	-5.35
GACCAAUCUGCCCUCAGAGCUCGAGAACAUCUUCGGAUGCAGAGGAGGCAGGCUUCGGUGGCACGAUAGCGCCAACGUCCUCAACUUCCAAUGCAUCCCACCACAUGAUGAUGCCUGAAGAGCCUUGGUUUUUUG [G63A C86U]	-0.411
GACCAAUCUGCCCUCAGAGCUCGAGAACAUCUUCGUAUGCAGAGGAGGCAAGCUUCGGUUGCGCGAUAGCGCCAACGUCCUCAACCUCCAAUGCAUCCCACCACAUGAUGACGCCUGAAGAGUCUUGGUUUUUUG [G36U G51A G60U U112C C123U]	-1.16
GACCAAUCUGCCCUCAGAGCUCGAGAACAUCUUCGGAUGCAGAGGAGGCAGGCUUCGGUGGCGCGAUAGCGCCAACGUCCUCAACGUCCAACGCAUCCCACCACAUGAUGAUGCCUGAAGAGCCUUGGUUUUUUG [C86G U92C]	-2.6
GACCAAUCUGCCCUCAGAGCUGGAGAACAUCUUCGGAUGCAGAGGAGGCUGGCUUUGGUGGCGCGAUAGCGCCAAUGUCCUCAACCUGCAAUGCAUCCCACCACAUGAUGAUGCCUGAAGAGCGUUGGUUUUUUG [C22G A50U C56U C76U C88G C124G]	-5.33
GACCAAUCUGCCCUCAGAGCUCGAGAACAUCUUCGGAUGCAGAGGAGGCAGGCAUCGGUGGCGUGAUAGCGUCAACGUCCUCAACCUCCAAUGCAUCCCACCACAUGAUGAUGCCUGAAGAGCCUUGGUUUUUUG [U54A C64U C72U]	0.146
GACCAAUCUGCCCUCAGAGCUCGAGAACAUCUUCGGAUGCAGAGGAGGCAGGCUUCGGUGGCGCGAUAGCGCCAACGUCCUCAUCCUCCAAUGCAUCCCACAGCAUGAGGAUGUCUGAAGAGCCUUGGUUUUUUG [A84U C102A A103G U109G C114U]	-3.45
GACCAAUGUGCCCUCAGAGCUCGAGAACAUCUUCGGAUGAAGAGGAGGCAGGCUUCGGUGGCGCGAUAGCGACAACGUCCUCAACCUCCAAUGCAUCUCACCACAUGAUGAUGCCUGAAGAGCCUUCGUUUUUUG [C8G C40A C72A C98U G127C]	-1.39
GACCCAUGUGCUCUCAGAGCUCGAGAACAUCUUCGGAUGCAGAGGAGGCAGGCUUCGGUGGCGCGAUAGCGUCAACGUCCUCAACCUCCAAUGAAUCCCACCACAUGAUGAUGCCUGAAGAGCCUUGGUUUUUUG [A5C C8G C12U C72U C94A]	-1.48
GACCAAUCUGCCCUCAGCGCUCGAGAACAUCUUCGGAUGCAGAGGAGGCAGGCUUCGGUGGCGCGAUAGCGCCAACGUCCUCAACCUCCAAUGCAUCCCACCACAUGAUGAUGCCUGAAGAGCCUUCGUUUUUUG [A18C G127C]	-3.02
GACCAAUCUGCCCUCAGAGCUCGAGAACAUCUUCGGAUGUAGAGGAGGCAGGCUUCGGUGGCGCGACAGCUCCAACGUCCUCAACCUCUAAUGCAUCCCACCACAUGAAGAUGCCUCAAGUGCCUUGAUUUUUAG [C40U U67C G71U C89U U109A G117C A121U G128A U134A]	-5.54
GACCAAUCUGCCCUCAGAGCUCGAGAACACCUUCGGAUGCAGAGGAGGCAGGCUUGGGUGGCGCGAUAGGGCCAACGUCCUCAACCUCCAAUGCAUCCCACCACAUGAAGAUGCCUGAAGAGCCUUGGUUUUUUG [U30C C56G C70G U109A]	-5.1
GACCAAUCUGCCCUCGGAGCUCGAGAACAUCUUCGGAUGCAGAGGAGGCUGGAUUCGGUGGCUCGAUAGCGCCAACGUCCUCAACCUCCAAUGCAUCCCCCCACAUGAUGAUGGCUGAAGCGCCUUGGUUUUUUG [A16G A50U C53A G63U A100C C114G A121C]	-7.46
GACCAAUCUGCCCUCAGAACUCGAGAACAUCUUCGGAUGCAGAGGAGGCAGGCUUCGGUGGCGCGAUAGCGCCAACGUCCUCAACCUCCAAUGCAUCCCACCACAUGAUGAUGCCUGAAGAGUCUUGGUUUUUUG [G19A C123U]	-2.48
GACCAAUCUUCCGUCAGAGCUCGAGAACAUCUUCGGAUGCAGAGUAGGCAGGCUUCGGUGGCGCGAUAGCGACAACGUCCUCAACCUCCAGUGCAUCCCACAACAUGAUGAUGCCUGUAGAGCGUUGGUUUACUG [G10U C13G G45U C72A A91G C102A A118U C124G U132A U133C]	-3.66
GACCAAGCUGCCCUCAGAGCUCGAGAACAUCUUCGGAUGCAGAGGAGGCAGGCUUCGGUGGCGCGAUAGCGCCAACGUCCUCAACCUCCAAUGCAUCCCACCACAUGAUGAUGCUUGAAGAGCCUUGGUUUUUUG [U7G C115U]	-1.47
GACCAAUCUGCCCUCAGAGCUCGAGAACAUCUUCGGAUGCAGAGGAGGCAGGCUUAGGUGGGGCGAUAGCGCCAACGUCCUCAACCUCCAAUGCAUCCCACCACAUGAUGAUGCCUGAAGAGCCUUGGUUUUUUG [C56A C62G]	-3.98
GACCAAUCUGCCCUCAGAGCUCGAGAACAUCUUCGGAUGCAGAGGAGGCAGGCUUCGGUGGCGCGAUAGCGCCAACGUGCUCAACCUCCAAUGCAUCCCACCACAUGGUGAUGCCUGAAGAGCCUUGGUUUUUUG [C79G A108G]	-3.63
GACCAAUCUGCCCUCAGAGCUCGAGAACAUCUUCGGAUGCAGAGGAGGCAGGCUUCGGGGGCGCGAUAGCGCCAACGUCCUAAACCUCCAAUGCAUCCCACCACAUGAUAAUGCCUGAAGAGCCUUGGUUUUUUG [U59G C82A G110A]	-0.532
GACCAAUCUGCCCUCAGAGCUCGAGAACAUCUUCGGAUGCAGAGGAGGCAGGCUUCGGUGGCGUGAUAGCGCCAACGUCCUCAACCUCCAAUGCAUCCCACCACAUGAUGAUGCCUGAAGAGUCUUGGUUUUUUG [C64U C123U]	1.23

Variant	polymerase ribozyme fitness (log ratio)
GACCAAUCUGCCCUCAGAGCUCGAGAACAUCUUCGGAUGGAGAGGAGGCAGGCUUCGGUGGCGCGAUAGCGCCAACGUCCUCAACCUCCAAGGCAUCCCACCACAUGAUGAUGCCUGAAAAGCCUUGGUUUUUUG [C40G U92G G120A]	-2.62
GACCAAUCUGCCUUCAGAGCCCGAGAACAUCUUCGGAUGCAGAGGAGGCAGGCUUCGGUGGCGCGAUAGCGCCAACGUCCUCAACCUCCAAUGCAUCCCACCACAUGAUGAUGCCUGAAGAGCCUUGGUUUUUUG [C13U U21C]	0.405
GACCAAUCUGCCCUCAGAGAUCGAGAACAUCUUCGGAUGCAGAGGAGGCAGGCUUAGGUGGCGCGAUAGCGCCAACGUCCUCAACCUCCAAUGCAUCUCACCACAUGAUGAUGCCUGAAGAGCCUUGGUUUUUUG [C20A C56A C98U]	-3.64
GACCAAUCUGCCCUCAGAGCUCGGGAACAUCUUCGGAUGCAGAGGAGGUAGGCUUCGGUUGCGCGAUAGCGCCAACGUCCUCAACCUCCAAUGCAUCCCACCACAUGAUGAUGCCUGAAGAGCCUUGGAUUUUUG [A24G C49U G60U U129A]	-3.61
GACCAAUAUGCCCUCAGAGCUCGAGAACAUCUUCGGAUGCAGAGGAGGCAGGCUUCGGUGGCGCGAUAGCGCCAACGUCCUCAACCUCCAAUGCAUCCCACCACAUGAUGAUGCCUGAGGAGCCUGGGUUUUUUG [C8A A119G U126G]	-0.311
GCCCAAUCUGCCCUCAGAGCUCGAGAACAUCUUCGGAUGCAGAGGAGGCAGGCUUCGGAGGCGCGAUAGCGCCAACGUCCUCAACCUCCAAUGCAUCCCACCACAUGAUGAUGCCUGAAGAACCUUGGUUUUUUG [A2C U59A G122A]	-2.15
GACCAAUCUUCCCUCAGAGCUCGAGAACAUCUUCGGUUGCAGAGGAGGCAGGCUUCGGUGGCGCGAUAGCGCCAACGUCCUCAACCUCCAAUGCAUCCCACGACAUGAUGAUGCAUGAAGAGCCUUGGUUUUUUG [G10U A37U C102G C115A]	-6.5
GACCAAUCUGCCCUCAGAGCUCGAGAACAUCUUCGGAUGCAGAGGAUGCAGGCUUCGGUGGCGCGAUAGCCCCAACGUCCUCAACCUCCAAUGCAUCCCACCACAUGAUGAUGCCUGAAGAGCCGUGGUUUUUUG [G47U G71C U125G]	-2.97
GACCAAUAUGCCCUCAGAGCACGAGAACAUCUUGGGAUGCAGAGGAGGCAGGCUUCGGUGGCGCGAUAGCGCCAACGUCCUCAACCUCCAAUGCAUCCCACCACAUGAGGAUGCCUGAAGAGCCUUGGUUUUUUG [C8A U21A C34G U109G]	-6.49
GACCAAUCAGCCCUCAGAGCUCGAGAACAUCUUCGGAUGCAGAGGAGGCAGGCUUCGAUGACGCGAUAGCGCCAACGUCCUCAAACUCCAAUGCAUCCCACCACAUGAUGAUGCCUGAAGAGCCUUGGUUUUUUG [U9A G58A G61A C85A]	-1.75
GACCAAUCUGCCCUCAGAGCUCGAGAACAUCUUCGGAUGCAGAGGAGGCAGGCUUCGGUGGCGCGAUAGCGCCAAGGUCCUCAACCUCCAUUGCAUCCCACCACAUGAUGAUGCCUGAAGAGCCUUGGUUUAUUG [C76G A91U U132A]	-1.52
GACCAAUCUGCCCUCAGAGCUCGAGAACAUCUUCGGAUGCAGAGGAGGCAGGCUUCGGUGGCGCGAUAGCGCCAACGUCCUCAACCUCCAAUGCAUUCCACCACAUGAUGAUGCCUGAAUAGCCUUGGUUUUUUG [C97U G120U]	-0.768
GACCAAUCUGCCCUCAGAGCUCGAGAACAUCUUAGGAUGCAGAGGAGGCAGGCUUCGGUGGCGCGAUAGCGCUAACGUCCUUAACCUCCAAUGCAUCCAACCACAUGAUGAUGCCUGAAGAGCCUUGGUUUUUUG [C34A C73U C82U C99A]	-4.69
GACCAAUCUGCCCUCAGAGCUCGAGAACAUCUUCGGAAGCAGAGGAGGCAGGCUUCUUUGGCGCGAUAGCGCCAACGUCCUCAACCUCCAAUGCAUCCCACCACAUGAUGAUGCCUGAAGAGCCUUGGUUUUUUG [U38A G57U G58U]	-1.64
GACCAAUCUGCCCUCAGAGCUCGAGAACAUCUUCGGAUGCAGAGGAGGCAGGCUUCGGUGACGCGAUAGCACCAACGUCCUCAACCUCCAAUGCAUCCCACCACAUGAUGAUGCCUGAAGAGCCUUGGUUUUUUG [G61A G71A]	-2.39
GACCAAUCUUCCCUCAGAGCUCGAGAACAUCUUCGGAUGCCGAGGAGUCAGGCUUCGGUGGCGCGAUAGCGCCAACGUCCUCAACCUCCAAUGCAUCCCACCACAUGAUGAUCCCUGAAGAGCCUUGGUUUUUUG [G10U A41C G48U G113C]	-3.37
GACCAAUCUGCGCUCAGAGCUCGAGAACAUCUUCGGAUGCAGAGGAGGCAGGCUUCGGUGGGGCGAUAGCGCCAACGUCCUAAACCUCCAAUGCAUCCCACCACAUGAUGAUGCCUGAAGAGCCUUGGUUUUUUG [C12G C62G C82A]	-1.16
GACCAAUCUGCCCUCAGAGAUCGAGAACAUCUUCGGAUGCAGAGGAGGCAGGCUUCGGUCGCGCGAUAGCGCCAACGUCCUCAACCUCCAAUGCAUCCCACCACAUGAUGAUGCCUGAAGAGCCUUGGUUUUUUG [C20A G60C]	-3.33
GACCAAUCUGCCCUCAGAGCUCGAGAACAUCUUCGGUUGCAGAGGAGGCAGGCUUCGGUGGCGCGAUAGCGCCAUCGUCCUCAACCUCCAAUGCAUCCCACCACAUGAUGAUGCCUGAAGAGCCUUGGUUUUUUG [A37U A75U]	-0.0341
GCCCAAUCUGUCCUCAGAGCUCGAGAACAUCUUCGGAUGCAGAGGAGGCAGGCUUCGGUGACGCGAUAGCGCCAACGUCCUCAACCUCCAAUGCAUCCCACCACAUGAUGAUGCCUGAAAAGCCUUGGUUUUUUG [A2C C11U G61A G120A]	-0.476
GACCAAUAUGGCCUCUGAGCUCGAGAACAUCUUCGGAUGCAGCGGAGGCAGGCUUCGGUGGCGCGAUAGCGCCAACGCCCUCAACCUCCAAUGCAUCCCACCACAUGAUGAUGCCUGAAGAGCCAUGGUUUUUUG [C8A C11G A16U A43C U78C U125A]	-1.72
